Measurements from article PMC5583172 (2017).
Where no end group is shown, it is not given here. [ ]: non-standard residue; d: D form. The star is where a group is joined. NMeF = CN[C@@H](Cc1ccccc1)C(=O)O; NHCH2CH2OH = OCCN*

Legend:
[1] = target: human mu opioid receptor (MOR), stably expressed in HEK293 cells with GloSensor (human, UniProt P35372 1-400)
[2] = target: mu opioid receptor (MOR) of wild type mouse brain (mouse (endogenous in brain), UniProt P42866 1-398)
Sequence of mu opioid receptor (MOR) of wild type mouse brain (P42866 whole entry): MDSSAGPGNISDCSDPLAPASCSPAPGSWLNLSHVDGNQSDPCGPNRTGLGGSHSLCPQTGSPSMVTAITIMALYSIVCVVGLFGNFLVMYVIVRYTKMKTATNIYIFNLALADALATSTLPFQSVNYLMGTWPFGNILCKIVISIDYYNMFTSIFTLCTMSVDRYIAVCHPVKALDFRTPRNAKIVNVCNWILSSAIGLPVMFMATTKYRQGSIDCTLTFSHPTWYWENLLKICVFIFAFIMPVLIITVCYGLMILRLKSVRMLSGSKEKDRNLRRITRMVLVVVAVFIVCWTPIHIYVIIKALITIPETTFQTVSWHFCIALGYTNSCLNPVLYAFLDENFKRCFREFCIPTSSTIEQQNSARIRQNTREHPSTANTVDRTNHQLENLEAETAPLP

Sequence of human mu opioid receptor (MOR), stably expressed in HEK293 cells with GloSensor (P35372 whole entry): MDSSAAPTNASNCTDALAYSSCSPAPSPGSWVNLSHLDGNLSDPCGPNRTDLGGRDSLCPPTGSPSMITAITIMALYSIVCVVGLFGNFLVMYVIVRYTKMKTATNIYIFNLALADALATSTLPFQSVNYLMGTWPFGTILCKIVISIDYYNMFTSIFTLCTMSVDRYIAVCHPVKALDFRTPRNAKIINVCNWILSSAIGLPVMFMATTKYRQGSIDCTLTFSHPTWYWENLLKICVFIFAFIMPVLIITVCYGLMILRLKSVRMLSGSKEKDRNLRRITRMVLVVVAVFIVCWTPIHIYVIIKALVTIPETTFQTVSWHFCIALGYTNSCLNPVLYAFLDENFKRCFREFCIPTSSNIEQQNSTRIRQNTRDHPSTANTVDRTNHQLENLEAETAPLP

**Q.** Y[dA]G[NMeF][NHCH2CH2OH] [DAMGO ([D-Ala2, N-MePhe4, Gly-ol]-enkephalin)] was tested. Which Ki [1] did it give?
**A.** 9.6 nM

**Q.** And the Ki [2]?
**A.** 3.1 nM
